According to article PMC11727070, “Structure of the WIPI3/ATG16L1 Complex Reveals the Molecular Basis for the Recruitment of the ATG12~ATG5-ATG16L1 Complex by WIPI3” (Cells, 2024):

Biological target: T1, SUMO-tagged WIPI3^Δ (human WIPI3 residues 8–344 without residues 264–281) (human, UniProt Q5MNZ6 8-344, without residues 264–281)
T1 construct: WIPI3, human, residues 8–344 with residues 264–281 removed; the WIPI3(75–80) region is retained; also called SUMO-WIPI3^Δ; loop-truncated WIPI3; source: E. coli BL21 (DE3), purified (Ni-NTA, Superdex 200); not shown: SUMO, N-terminal, kept
T1 sequence (Q5MNZ6 other isoform, or with tags, fused parts or gaps without residues 264–281 | without residues 264–281 | mutant): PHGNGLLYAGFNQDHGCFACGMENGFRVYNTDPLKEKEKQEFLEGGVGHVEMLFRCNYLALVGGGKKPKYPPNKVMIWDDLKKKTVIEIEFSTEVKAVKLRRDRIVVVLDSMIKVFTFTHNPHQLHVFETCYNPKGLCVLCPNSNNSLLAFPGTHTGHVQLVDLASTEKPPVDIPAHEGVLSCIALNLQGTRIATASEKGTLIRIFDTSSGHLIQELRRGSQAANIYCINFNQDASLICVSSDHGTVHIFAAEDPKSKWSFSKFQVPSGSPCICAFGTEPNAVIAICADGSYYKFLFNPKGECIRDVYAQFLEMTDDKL
Experiment: SEC; purified proteins alone and mixed, Superdex 200 Increase 10/300 GL or Superdex 75 10/300 GL on an AKTA FPLC; mixture profile compared with the theoretical sum; fractions checked by SDS-PAGE
Conditions: both partners purified

Binder	binding result
ATG16L1(78–197) (domain or fragment, human, UniProt Q676U5 78-197, looked up, source: E. coli BL21 (DE3), purified (Ni-NTA, Superdex 200)) NDNQLQEMAQLRIKHQEELTELHKKRGELAQLVIDLNNQMQRKDREMQMNEAKIAECLQTISDLETECLDLRTKLCDLERANQTLKDEYDALQITFTALEGKLRKTTEENQELVTRWMAE	binds
ATG16L1(78–247) (domain or fragment, human, UniProt Q676U5 78-247, looked up, Legends name it without Trx (while ATG2A is named Trx-ATG2A), so the tag may have been cleaved; also called central region of ATG16L1; source: E. coli BL21 (DE3), purified (Ni-NTA, Superdex 200)) NDNQLQEMAQLRIKHQEELTELHKKRGELAQLVIDLNNQMQRKDREMQMNEAKIAECLQTISDLETECLDLRTKLCDLERANQTLKDEYDALQITFTALEGKLRKTTEENQELVTRWMAEKAQEANRLNAENEKDSRRRQARLQKELAEAAKEPLPVEQDDDIEVIVDET	binds

Other lines, results leading:

binding result	Binder
binds	ATG16L1(78–206) (domain or fragment, human, UniProt Q676U5 78-206, looked up, Legends name it without Trx; source: E. coli BL21 (DE3), purified (Ni-NTA, Superdex 200)) NDNQLQEMAQLRIKHQEELTELHKKRGELAQLVIDLNNQMQRKDREMQMNEAKIAECLQTISDLETECLDLRTKLCDLERANQTLKDEYDALQITFTALEGKLRKTTEENQELVTRWMAEKAQEANRLN
binds	ATG16L1(124–188) (domain or fragment, human, UniProt Q676U5 124-188, looked up, Parallel coiled-coil dimer in the crystal; also called ATG16L1 coiled-coil; source: E. coli BL21 (DE3), purified (Ni-NTA, Superdex 200)) MQMNEAKIAECLQTISDLETECLDLRTKLCDLERANQTLKDEYDALQITFTALEGKLRKTTEENQ
binds	ATG16L1(124–197) (domain or fragment, human, UniProt Q676U5 124-197, looked up, source: E. coli BL21 (DE3), purified (Ni-NTA, Superdex 200)) MQMNEAKIAECLQTISDLETECLDLRTKLCDLERANQTLKDEYDALQITFTALEGKLRKTTEENQELVTRWMAE

Biological target: T2, GST-tagged WIPI3Δ (human, UniProt Q5MNZ6 8-344, without residues 264–281)
T2 construct: WIPI3, human, residues 8–344 with residues 264–281 removed; also called GST-WIPI3Δ; source: E. coli BL21 (DE3), purified (Ni-NTA, Superdex 200); not shown: GST, N-terminal, kept
T2 sequence (Q5MNZ6 other isoform, or with tags, fused parts or gaps without residues 264–281 | without residues 264–281 | mutant): as the sequence (Q5MNZ6 other isoform, or with tags, fused parts or gaps without residues 264–281 | without residues 264–281 | mutant) above
Experiment: SEC; competition: a pre-formed complex incubated with an increasing molar ratio of the competitor, then SEC; fractions analysed by SDS-PAGE with Coomassie staining
Conditions: both partners purified

binding result	Binder
binds	ATG16L1(78–206) (domain or fragment, human, UniProt Q676U5 78-206, looked up, Legends name it without Trx; source: E. coli BL21 (DE3), purified (Ni-NTA, Superdex 200)) NDNQLQEMAQLRIKHQEELTELHKKRGELAQLVIDLNNQMQRKDREMQMNEAKIAECLQTISDLETECLDLRTKLCDLERANQTLKDEYDALQITFTALEGKLRKTTEENQELVTRWMAEKAQEANRLN
